# Measurements taken from PMC8176221, “Identification and Characterization of Two Transmembrane Proteins Required for Virulence of Ustilago maydis” (Frontiers in Plant Science, 2021).
# Molecular target: the molecule itself
# Assay: SEC; Vmp2 on a Superose 6 Increase 10/300 column in SEC buffer with 0.03% DDM
protein,measurement,value
"Vmp2 (virulence-associated membrane protein 2), full length without the signal peptide (natural protein, Vmp2 (UMAG_01689) of Ustilago maydis SG200, a protein of 335 aa, cloned from genomic DNA without the signal peptide (25 aa as predicted by SignalP-5.0); one TM helix at residues 100-115; The methods say that the Mistics-tag was cleaved off with TEV before SEC; also called UMAG_01689; full length Vmp2; source: E. coli OverExpress C43 (DE3), purified (membrane fraction solubilised with DDM, Ni-NTA, …)) AESQCEERNDYSRKRPSHKPFTSHQNKQDRSCSSPLPSESCSTSAITPSDSAVRDTSLSRRGLPGMPGDIEWMGFYGSLLAVPTMLSILGIITNYNLGKSYYNSELNAQYYKQSREMLRAHTAKLIQDQEKKFANAGVSWNGMVYGKDGQVNPGAKLPEWNGRVLGGTVANPKSQPVPGSGGAVQGAAAGVGGGTTAGVAAGAGAASAGTGPAQVGGATAGGAGAEAQTGTGAIATGTGTGGAGDAGGSAPVSSGAEQGDAEAGDEARGSEERGDDGTEDRRGGQSEGDDDSDSDGNDEGDAGDAGDAGDA",stoichiometry N,2
